Assay results taken from patent US6403765B1, “Truncated Apaf-1 and methods of use thereof” (Thomas Jefferson University, priority 1998, dated 2002).

Legend:
[1] = target: T1, procaspase-3 (Homo sapiens, UniProt P42574); experiment: Processing of procaspase-3 by Apaf-530-bound caspase-9; format: biochemical; conditions: Apaf-530 with non-radiolabeled WT procaspase-9, FIG. 15
T1 construct: made in house; host or cells: coupled in vitro transcription/translation in rabbit reticulocyte lysate (TNT Kit, Promega)
T1 sequence (P42574 1-277): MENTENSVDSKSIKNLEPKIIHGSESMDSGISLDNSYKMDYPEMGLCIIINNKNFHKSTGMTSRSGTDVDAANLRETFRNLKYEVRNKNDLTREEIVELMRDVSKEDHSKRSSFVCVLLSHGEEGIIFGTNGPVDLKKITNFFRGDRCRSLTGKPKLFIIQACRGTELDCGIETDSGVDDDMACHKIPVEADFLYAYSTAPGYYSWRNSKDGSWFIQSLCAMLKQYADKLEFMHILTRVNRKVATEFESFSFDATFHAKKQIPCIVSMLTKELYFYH
Experimental: (§1) To achieve this, a chimeric procaspase-3 with an N-terminal caspase-9 prodomain was constructed. Caspase-9 prodomain in the chimera may allow recruitment of the chimeric procaspase-3 to the Apaf-530-caspase-9 complex. […] In FIG. 15, ^35S-labeled chimeric procaspase-3 with an N-terminal procaspase-9 prodomain (lanes 1-4) or WT procaspase-3 (lanes 5-8) were incubated with buffer or Apaf-530 in the presence or absence of a non-radiolabeled WT procaspase-9 and analyzed by SDS-PAGE followed by autoradiography.

[2] = tested on: chimeric procaspase-3 with an N-terminal procaspase-9 prodomain; experiment: Processing of chimeric procaspase-3 by Apaf-530-bound caspase-9; format: biochemical; conditions: Apaf-530 in the absence of procaspase-9, FIG. 15
Experimental: as §1

[3] = target: T2, T7-tagged Apaf-530 (Homo sapiens, UniProt O14727); experiment: Co-immunoprecipitation of Flag-tagged Apaf-1 variants with T7-tagged Apaf-530 in 293 cells; format: binding; conditions: anti-Flag immunoprecipitation, anti-T7 blot, 36 hours, FIG. 11
T2 construct: expressed in transfected cells; host or cells: 293 cells
T2 sequence (O14727 1-530 isoform O14727-3): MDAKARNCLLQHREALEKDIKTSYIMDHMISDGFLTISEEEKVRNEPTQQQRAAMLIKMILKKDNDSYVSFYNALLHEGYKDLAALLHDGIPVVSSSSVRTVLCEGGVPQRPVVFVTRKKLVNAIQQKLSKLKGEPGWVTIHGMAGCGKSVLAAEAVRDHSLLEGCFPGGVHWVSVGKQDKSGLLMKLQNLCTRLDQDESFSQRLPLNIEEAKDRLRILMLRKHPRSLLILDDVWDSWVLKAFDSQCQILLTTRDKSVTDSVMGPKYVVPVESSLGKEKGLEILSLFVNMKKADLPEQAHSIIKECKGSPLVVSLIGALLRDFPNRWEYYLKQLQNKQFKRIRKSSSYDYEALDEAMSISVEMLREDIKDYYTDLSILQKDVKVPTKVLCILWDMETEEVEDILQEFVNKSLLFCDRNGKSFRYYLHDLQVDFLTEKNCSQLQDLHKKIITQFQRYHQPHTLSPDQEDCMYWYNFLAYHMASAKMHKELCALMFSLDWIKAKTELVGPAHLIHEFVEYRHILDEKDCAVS
Experimental: The ability of APAF-530 to oligomerize pro-caspase-9 was tested. Co-transfection experiments in 293 cells were performed with T7-tagged Apaf-530 and different Flag-tagged Apaf-1 variants, and cell lysates were prepared and immunoprecipitated with an anti-Flag antibody. The immunoprecipitates were analyzed by Western blotting with an anti-T7 antibody.
In FIG. 11, 293 cells were co-transfected with constructs encoding T7-tagged Apaf-530 and an empty vector (lane 1) or constructs encoding Flag-tagged Apaf-1 (lane 2), Flag-tagged Apaf-530 (lane 3), Flag-tagged Apaf-530ΔCARD (lane 4) or Flag-tagged Apaf-97 (lane 5). After 36 hours, extracts were prepared and immunoprecipitated with a monoclonal antibody to the Flag epitope. The immunoprecipitates (upper panel) were analyzed by SDS-PAGE and immunoblotted with a horseradish peroxides-conjugated T7 antibody. The corresponding cellular extracts were also analyzed by SDS-PAGE and immunoblotted with a horseradish peroxides-conjugated T7 antibody (middle panel) or an anti-Flag antibody (lower panel).

[4] = target: T3, T7-tagged Bcl-xL (Homo sapiens, UniProt Q07817); experiment: Co-immunoprecipitation of Flag-tagged Apaf-1 variants or procaspase-9 with T7-tagged Bcl-xL in 293 cells; format: binding; conditions: anti-Flag immunoprecipitation, anti-T7 blot, 36 hours, FIG. 16
T3 construct: expressed in transfected cells; host or cells: 293 cells
T3 sequence (Q07817 whole entry): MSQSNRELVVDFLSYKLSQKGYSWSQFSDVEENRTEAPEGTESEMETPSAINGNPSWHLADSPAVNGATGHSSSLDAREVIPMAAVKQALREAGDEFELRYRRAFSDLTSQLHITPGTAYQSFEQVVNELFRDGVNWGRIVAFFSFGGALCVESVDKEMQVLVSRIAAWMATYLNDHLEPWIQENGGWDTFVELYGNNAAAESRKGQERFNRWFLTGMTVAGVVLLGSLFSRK
Experimental: In vivo interaction experiments between Apaf-1 variants and Bcl-xL were performed. To analyze the ability of Apaf-1 to interact with Bcl-xL, 293 cells were co-transfected with constructs encoding T7-tagged Bcl-xL and constructs encoding Flag-tagged Apaf-97 (FIG. 16, lane 1), Apaf-1 (FIG. 16, lane 2), Apaf-530 (FIG. 16, lane 3) Apaf-530ΔCARD (FIG. 16, lane 4), or procaspase-9 C287A (FIG. 16, lane 5). After 36 hours, extracts were prepared and immunoprecipitated with a monoclonal antibody to the Flag epitope. The immunoprecipitates (FIG. 16, upper panel) were analyzed by SDS-PAGE and immunoblotted with a horseradish peroxidase-conjugated T7 antibody. The corresponding cellular extracts were also analyzed by SDS-PAGE and immunoblotted with a horseradish peroxides-conjugated T7 antibody (FIG. 16, middle panel) or an anti-Flag antibody (FIG. 16, lower panel).

- processing of chimeric procaspase-3 [2]: no processing was observed
- co-immunoprecipitation with T7-Apaf-530 [3]: co-immunoprecipitated
- co-immunoprecipitation with Bcl-xL [4]: capable of immunoprecipitating Bcl-xL
B1: Apaf-530: truncated Apaf-1 (residues 1-530) lacking its WD-40 repeats, recombinant (protein, UniProt O14727 1-530, looked up, fragment)
chain: MDAKARNCLLQHREALEKDIKTSYIMDHMISDGFLTISEEEKVRNEPTQQQRAAMLIKMILKKDNDSYVSFYNALLHEGYKDLAALLHDGIPVVSSSSGKDSVSGITSYVRTVLCEGGVPQRPVVFVTRKKLVNAIQQKLSKLKGEPGWVTIHGMAGCGKSVLAAEAVRDHSLLEGCFPGGVHWVSVGKQDKSGLLMKLQNLCTRLDQDESFSQRLPLNIEEAKDRLRILMLRKHPRSLLILDDVWDSWVLKAFDSQCQILLTTRDKSVTDSVMGPKYVVPVESSLGKEKGLEILSLFVNMKKADLPEQAHSIIKECKGSPLVVSLIGALLRDFPNRWEYYLKQLQNKQFKRIRKSSSYDYEALDEAMSISVEMLREDIKDYYTDLSILQKDVKVPTKVLCILWDMETEEVEDILQEFVNKSLLFCDRNGKSFRYYLHDLQVDFLTEKNCSQLQDLHKKIITQFQRYHQPHTLSPDQEDCMYWYNFLAYHMASAKMHKELCALMFSLDWIKAKTELVGPAHLIHEFVEYR
- processing of WT procaspase-3 [1]: no processing of procaspase-3 was observed
